Here are results for four molecules from article PMC10979056 (Heliyon, 2024).

Changes are numbered by the printed parent chain.

The chains are these.
B1: MsT001 (antibody, V domains shown)
VH: EVQLQQSGAEVVMPGASVKMSCKTSGYTFTDYLIHWVKQRPGQGLVWIGAIDTSDSYASYNQKFKGKATLTLDESSRTAYMQLSSLTSEDSAVYFCTGEGLDYWGQGTSVTVSS
VL: DIQMTQTPLSLPVSLGDQASISCRSSQSLVHSNGNTYLNWYLQKPGQSPKLLIYKVSYRFSGVPDRFSGSGSGTDFTLKISRVEAEDLGVYFCSQSTHVPPLTFGAGTKLELK
B2: MsT229 (antibody, V domains shown)
VH: EIQLVQSGPELVKPGASMKMSCKASGYSFTGYTMNWVKQSHGQNLEWIGLINPQTGGTSYNQNFRGKATLTVDKSSNTAYMELLSLTSEDSAVYYCARERGFDSPGFPYWGQGTLVTVSA
VL: DIQMTQTTSSLSASLGDRVTISCRASQDISNYLNWYQQKPDGTVKLLIYYTSRLHSGVPSRFSGSGSGTDYSLTISNLEQEDIATYFCQQGNTLPLTFGAGTKLELK
B3: MsT229-Bio (antibody, V domains shown)
VH: B2 VH
VL: B2 VL
B4: MsT286 (antibody, V domains shown)
VH: B2 VH with E1Q, I2V, V5Q
VL: not shown

One test has as its target human TIM-3-His (human, UniProt Q8TDQ0). As to the kind of experiment: ELISA. (An ELISA detects its analyte on a solid surface through an enzyme-linked reagent.)
Regarding B1, the “sensitivity (lowest detectable concentration of coated TIM-3-His)” value is 1 ng/mL.
The same measure, in the same setting: the figure for B2 is 10 ng/mL; for B3 it is 1 ng/mL; for B4 it is 1 ng/mL.

A further test concerns the target cynomolgus TIM-3-hFc (Macaca fascicularis, UniProt A0A2K5U3G7). Kind of test: BLI. Background: In BLI a coated tip is dipped into the sample, and binding shifts an interference pattern.
Molecule B2 showed a Kd of 17.9 pM.
For B4, the Kd amounted to 914 pM.

As usually defined, the Kd is the constant that tells how readily two partners part at equilibrium.
